Data set [1] is described as follows: Material quality check of GDF15 proteins (clipping, methionine oxidation, deamidation). In kind it is physicochemical. From the text: The AHA-(200-308)-hGDF15 (SEQ ID NO: 7) was designed to remove the clipping site observed within the native protein as well as to remove the potential methioinine (M1) formylation site and the N-199 deamidation site.
For another data set, the target named is T1, OT (Homo sapiens, UniProt P30559).
T1 sequence (P30559 1-389): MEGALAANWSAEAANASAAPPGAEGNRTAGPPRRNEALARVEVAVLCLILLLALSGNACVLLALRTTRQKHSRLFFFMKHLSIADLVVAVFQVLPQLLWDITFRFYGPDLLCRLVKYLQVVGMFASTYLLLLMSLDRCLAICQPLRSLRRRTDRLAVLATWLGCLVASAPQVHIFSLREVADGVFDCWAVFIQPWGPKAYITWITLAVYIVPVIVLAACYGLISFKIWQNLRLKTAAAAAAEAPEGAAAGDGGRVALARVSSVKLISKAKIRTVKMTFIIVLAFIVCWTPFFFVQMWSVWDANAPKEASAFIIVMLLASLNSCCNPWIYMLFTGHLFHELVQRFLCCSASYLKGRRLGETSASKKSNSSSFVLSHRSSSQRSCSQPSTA
Description: OT Calcium flux agonist assay (GPCRProfiler). In kind it is cell-based. Conditions: read-out: OT Ca^2+ Flux EC50. Here is the method:
Supplied compounds were prepared in DMSO and ultimately prepared in the Eurofins Discovery Services GPCRProfiler® Assay Buffer to concentrations that were three-fold higher than the final assay concentration. Similarly, vehicle controls and positive controls were prepared to ensure all assays were properly controlled.
All wells were prepared using the Eurofins Discovery Services GPCRProfiler® Assay Buffer. The GPCRProfiler® Assay Buffer was a modified Hanks Balanced Salt Solution (HBSS) where HBSS was supplemented to contain 20 mM HEPES and 2.5 mM Probenecid at pH7.4.
Compound(s) supplied were plated in duplicate for each concentration assayed.
Reference agonist, oxytocin, was prepared in a similar manner to serve as assay control. The reference agonist, oxytocin, was included at Emax (the concentration where the reference agonist elicited a maximal response).
The agonist assay was conducted on a […] instrument where the test compound(s), vehicle controls, and reference agonist were added to the assay plate after a fluorescence/luminescence baseline was established. […]
All plates were subjected to appropriate baseline corrections. Once baseline corrections were processed, maximum fluorescence/luminescence values were exported and data manipulated to calculate percentage activation and percentage inhibition. […]
In general terms: A change in cytosolic calcium serves as a functional read-out for many receptors and channels.

Data set [2] in a line: In vivo plasma stability of oxytocin conjugate, 3 mg/kg iv. More on the design: species or system rats. Conditions: 3 mg/kg intravenously; for half-life: rat, plasma, iv, male Sprague-Dawley rats, read-out: In vivo Plasma stability t½ (converted). Here is the method:
Conjugate was dissolved in PBS (Phosphate buffered saline) to a concentration of 3 mg/ml to form Dosing solution. Dosing solution was administered intravenously to male Sprague-Dawley rats via lateral tail vein at a volume of 1 ml/kg body weight, corresponding to a dose of 3 mg/kg. Venous blood samples were acquired from a jugular vein catheter at prescribed times after dosing and immediately placed on wet ice. These samples were centrifuged at 4C, with supernatant plasma transferred to a fresh tube for analysis.
Standard curve preparation: Stock solution was prepared by dissolving peptide conjugate and peptide into two separate vials in dimethylsulfoxide to 1 mg/ml. 10 uL of each stock was mixed with 980 uL rat plasma to form a working stock of 10,000 ng/ml in plasma. This was serially diluted in plasma to form standards of 5000, 1000, 500, 100, 50, 10, 5, 1, 0.5, and 0.1 ng/ml. Sample and standard preparation: 25 uL plasma sample or standard was transferred to a clean plate. 150 uL acetonitrile containing 100 ng/ml glyburide as internal standard was added to each vial and the plate vortexed to mix the contents. The plate was centrifuged at 4000 rpm at 4 C. 125 uL supernatant was transferred to a clean plate, mixed with 150 uL water and analyzed by LC/MS.

Data set [3] can be described thus: In vivo plasma stability of APJ agonist conjugates, 1 mg/kg iv. Conditions: rat, male Sprague-Dawley rats, 1 mg/kg intravenously, read-out: In vivo Plasma stability t½ (converted). On the procedure:
Conjugate was dissolved in PBS (Phosphate buffered saline) to a concentration of 1 mg/ml to form Dosing solution. Dosing solution was administered intravenously to male Sprague-Dawley rats via lateral tail vein at a volume of 1 ml/kg body weight, corresponding to a dose of 1 mg/kg. Venous blood samples were acquired from a jugular vein catheter at prescribed times after dosing and immediately placed on wet ice. These samples were centrifuged at 4C, with supernatant plasma transferred to a fresh tube for analysis.
• Standard curve preparation: Stock solution was prepared by dissolving peptide conjugate in water to 1 mg/ml. 10 uL of Stock was mixed with 990 uL rat plasma to form a working stock of 10,000 ng/ml in plasma. This was serially diluted in plasma to form standards of 5000, 1000, 500, 100, 50, 10, 5 and 1 ng/ml. • Sample and standard preparation: 25 uL plasma sample or standard was transferred to a clean plate. 150 uL acetonitrile:MeOH (1:1) containing 100 ng/ml glyburide as internal standard was added to each vial and the plate vortexed to mix the contents. The plate was centrifuged at 4000 rpm at 4 C. 125 uL supernatant was transferred to a clean plate, mixed with 50 uL water and analyzed by LC/MS.

Data set [4] deals with Diet-induced obese male mice (C57BL/6NTac). Description: DIO mice single 0.5 mg/kg sc dose: food intake and body weight. Conditions: exp 1 / exp 2 = separate in vivo experiments. Here is the method:
(§1) All animal studies described in this document were approved by the Novartis Institutes for Biomedical Research Animal Care and Use Committee in accordance with local and federal regulations and guidelines. Diet-induced obese male mice (C57BL/6NTac) were purchased from Taconic and fed a 60% fat diet (Research Diets D12492i) from 6-weeks of age onward. Upon arrival, mice were housed one animal per cage under a 12 h:12 h reverse light-dark cycle. Animals all received a minimum of 1 week acclimation prior to any use. Mice were typically studied between 3-4 months of age. […] On the day of study, mice were placed in fresh cages, and the old food removed. Approximately 1 h later and just prior to the dark cycle, mice received a single subcutaneous dose of either vehicle (30 mM sodium acetate, pH 4) or a lipid conjugated GDF15 analog (0.5 mg/kg). After all injections are completed, the mice were reweighed and a defined amount of food returned ([…] per mouse). In surrogate animals treated as described above, plasma was collected at the indicated times, and GDF15 levels were measured by ELISA as per the manufacturer's instructions (R&D Systems Quantikine Human GDF15 Immunoassay; DGD150). The activity and half-life of the conjugates of the invention were tested in the assay described supra.

Data set [5] can be described thus: DIO mice single 0.5 mg/kg sc dose: plasma GDF15 levels by ELISA (PK). Conditions: exp 1 / exp 2 = separate in vivo experiments. Here is the method: as §1
(ELISA stands for enzyme-linked immunosorbent assay.)

[6] abbreviates: clipping site R9/N10 (for the AHA protein: none detected).

Starred links: 1 amine or outer side, 2 acyl side, 3 side chain; linkers in the order of their positions; H or OH if unused. Positions of bridges follow the written chain, without caps; N, C: chain ends. Non-standard residues stand in square brackets, D forms with d. Residues, ends and D or L forms follow the SMILES beside them. Groups on a side chain read outwards from the residue. *: point of attachment. PEG24 = NCCOCCOCCOCCOCCOCCOCCOCCOCCOCCOCCOCCOCCOCCOCCOCCOCCOCCOCCOCCOCCOCCOCCOCCOCCC(=O)O; Malonyl(C11H23,(CH2)10COOH) = CCCCCCCCCCCC(CCCCCCCCCCC(=O)O)(C(=O)O)C(=O)*; NGly(3-aminopropyl) = O=C(CN(CCCN[*:3])[*:1])[*:2]; pGlu = O=C1CC[C@@H](C(=O)O)N1; NHPhenethyl = c1ccc(CCN*)cc1; dNle = CCCC[C@@H](N)C(=O)O; Nle = CCCC[C@H](N)C(=O)O; Sar = CNCC(=O)O

Turning to “MHHHHHH-ARN-(200-308)-hGDF15: His-tagged hGDF15 with native sequence, compared with AHA variant in material quality check”, in data set [1] (M1), the Methionine oxidation result is given as “M1: 12.0%”. Besides, in data set [1] (N10), the N-199 deamidation entry is “N10: 50.1%”. Also, the clipping entry is given as “N10/G11 (<1%)” in data set [1] (clipping site N10/G11) and “R9/N10 (<1%)” in data set [1] (setting [6]).

By EC50 is commonly meant the concentration needed to bring the measured effect to its halfway point. On to `CCCCCCCCCCCC(CCCCCCCCCCC(=O)O)(C(=O)O)C(=O)NCCOCCOCCOCCOCCOCCOCCOCCOCCOCCOCCOCCOCCOCCOCCOCCOCCOCCOCCOCCOCCOCCOCCOCCOCCC(=O)NCCCN(CC(=O)N[C@@H](CC(C)C)C(=O)NCC(N)=O)C(=O)[C@@H]1CCC(=O)NCC(=O)N[C@@H](Cc2ccc(O)cc2)C(=O)N[C@@H]([C@@H](C)CC)C(=O)N[C@@H](CCC(N)=O)C(=O)N[C@@H](CC(N)=O)C(=O)N1` (stereo partly drawn) [Example 26A] (GYIQNE[NGly(3-aminopropyl)]([PEG24-Malonyl(C11H23,(CH2)10COOH)])LG-NH2; lactam N-6), for which the EC50 at OT stood at 8.4 nM. The half-life in data set [2] is 2760 min. The “increase in half-life compared to unconjugated oxytocin analog” value in data set [2] (rats) was 75 fold.

As to `CC[C@H](C)[C@@H]1NC(=O)[C@H](Cc2ccc(O)cc2)NC(=O)CNC(=O)CC[C@@H](C(=O)N(C)CC(=O)N[C@@H](CC(C)C)C(=O)NCC(N)=O)NC(=O)[C@H](CC(N)=O)NC(=O)[C@H](CCC(N)=O)NC1=O` (GYIQNE[Sar]LG-NH2; lactam N-6), the EC50 at OT came to 7.8 nM. For the same molecule, in data set [2], the half-life is 36 min.

As to `CCCC[C@@H](NC(=O)[C@@H]1CCCN1C(=O)CNC(=O)[C@H](CCCCN)NC(=O)[C@@H]1CSSC[C@H](NC(=O)[C@@H]2CCCN2C(=O)[C@H](CCCNC(=N)N)NC(=O)[C@@H]2CCC(=O)N2)C(=O)N[C@@H](CC(C)C)C(=O)N[C@@H](CO)C(=O)N1)C(=O)NCCc1ccccc1` [pE-R—P—C*-L-S—C*—K-G-P-(D-Nle)-NH(Phenethyl) (disulfide C^4-C^7)] ([pGlu]RPCLSCKGP[dNle]-NHPhenethyl; disulfide 4-7), the half-life in data set [3] (in vivo) was 54 min.

Take `CCCC[C@@H]1NC(=O)[C@@H]2CCCN2C(=O)CNC(=O)[C@H](CCCCN)NC(=O)[C@H](Cc2cnc[nH]2)NC(=O)[C@@H](NC(=O)[C@H](CC(C)C)NC(=O)[C@H](CCCNC(=N)N)NC(=O)[C@@H]2CCCN2C(=O)[C@H](CCCNC(=N)N)NC(=O)[C@@H]2CCC(=O)N2)CSSC[C@@H](C(=O)N[C@@H](Cc2ccccc2)C(=O)O)NC1=O` [pE-R—P—R-L-C*—H—K-G-P-Nle-C*—F—OH(Disulfide C^6-C^12)] ([pGlu]RPRLCHKGP[Nle]CF-OH; disulfide 6-12): in data set [3] (in vivo), the half-life is 42 min.

As for `C=CCCCCCCCCCC(CCCCCCCCCCC(=O)O)(C(=O)O)C(=O)NCCOCCOCCOCCOCCOCCOCCOCCOCCOCCOCCOCCOCCOCCOCCOCCOCCOCCOCCOCCOCCOCCOCCOCCn1nnc2c1CCC1C(CC2)[C@@H]1COC(=O)NCCCC[C@@H]1NC(=O)[C@H](Cc2c[nH]cn2)NC(=O)[C@@H](NC(=O)[C@H](CC(C)C)NC(=O)[C@H](CCCNC(=N)N)NC(=O)[C@@H]2CCCN2C(=O)[C@H](CCCNC(=N)N)NC(=O)[C@@H]2CCC(=O)N2)CSSC[C@@H](C(=O)N[C@@H](Cc2ccccc2)C(=O)O)NC(=O)[C@H](CCCC)NC(=O)[C@@H]2CCCN2C(=O)CNC1=O` (stereo partly drawn) [Example 21A], the half-life in data set [3] (plasma) is 444 min.

B1: 12: GDF15 conjugate listed in Table 1 only; no example text in the patent (conjugate, UniProt Q99988 195-308, looked up)
Growth/differentiation factor …: ARARNGDHCPLGPGRCCRLHTVRASLEDLGWADWVLSPREVQVTMCIGACPSQFRAANMHAQIKTSLHRLKPDTVPAPCCVPASYNPMVLIQKTDTGVSLQTYDDLLAKDCHCI
modifications: conjugate
As for B1, in data set [4], the “Duration of action: Body weight (BW) reduction” value is 6 to 8 days and the “Duration of action: Food Intake (FI) reduction” value was in the range of 6 to 8 days.

B2: hGDF15: non-conjugated hGDF15 (protein, UniProt Q99988 195-308, looked up)
Growth/differentiation factor …: ARARNGDHCPLGPGRCCRLHTVRASLEDLGWADWVLSPREVQVTMCIGACPSQFRAANMHAQIKTSLHRLKPDTVPAPCCVPASYNPMVLIQKTDTGVSLQTYDDLLAKDCHCI
As to B2, in data set [5], the “PK (1/2 life)” value was determined as 1 h. Moreover, in data set [4], the “Duration of action: Body weight (BW) reduction” value is recorded as 1 days and the “Duration of action: Food Intake (FI) reduction” value came to 1 days.

B3: AHA-(200-308)-hGDF15: GDF15 mutant designed to remove clipping site, methionine formylation site and N-199 deamidation site (protein)
chain: AHAGDHCPLGPGRCCRLHTVRASLEDLGWADWVLSPREVQVTMCIGACPSQFRAANMHAQIKTSLHRLKPDTVPAPCCVPASYNPMVLIQKTDTGVSLQTYDDLLAKDCHCI
modifications: GDF15 mutant, Intermediate 57 AHA-(200-308)- hGDF15
B3: in data set [1] (setting [6]), the clipping result is on record as “None”.

For the origin of these results see patent US11752211B2, “Fatty acids and their use in conjugation to biomolecules” (NOVARTIS AG, priority 2014, dated 2023).
